Experimental findings from patent US20130337579, “Methods for Determining Protein Ligand Binding” (UNIVERSITY OF MARYLAND, COLLEGE PARK, published 2013) are described below.

Where a chain is given by its changes, count along the chain named.

The target of series [1] is CRP (catabolite activator protein, cAMP receptor protein) (Escherichia coli, UniProt P0ACJ8 P0ACJ8:2-210). As to the kind of experiment: DRaCALA; 100 nM CRP, 4 nM probe, 200 uM cAMP. As to conditions: tags: His-CRP expressed from pBAD-CRP, Ni-NTA and anion exchange; chain copies: 2; label: 5'-32P.
In series [2] the target is MBP (maltose binding protein) (UniProt P0AEX9 P0AEX9:27-396). The series is described as follows: DRaCALA; 100 nM MBP, 4 nM probe, 200 uM cAMP.

Chain of CRP (catabolite activator protein, cAMP receptor protein) (P0ACJ8 2-210, one chain of several): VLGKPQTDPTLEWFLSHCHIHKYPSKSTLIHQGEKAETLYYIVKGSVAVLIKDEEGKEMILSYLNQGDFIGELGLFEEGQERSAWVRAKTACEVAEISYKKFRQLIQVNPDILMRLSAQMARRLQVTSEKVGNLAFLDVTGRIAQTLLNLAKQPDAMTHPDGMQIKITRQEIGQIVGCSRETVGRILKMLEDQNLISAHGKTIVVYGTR

B1: 10:G-C oligo duplex (gd130/gd131) (dsDNA)
DNA 1: AGGAGGAATAAATGTCATCTAGATGACATTTTAGAGGAGG
DNA 2: CCTCCTCTAAAATGTCATCTAGATGACATTTATTCCTCCT
Consider B1, for which the binding result in series [1] is on record as “no binding”.

B2: ICAP oligo duplex (gd126/gd127) (dsDNA)
DNA 1: B1 DNA 1 with C16G, G25C
DNA 2: B1 DNA 2 with C16G, G25C
Regarding B2, the binding result in series [2] is recorded as “no binding”.

B3: 8,10:G-C oligo duplex (gd132/gd133) (dsDNA)
DNA 1: B1 DNA 1 with G14C, C27G
DNA 2: B1 DNA 2 with G14C, C27G
In the case of B3, the binding result in series [1] was “no binding”.
